According to patent publication US20190233493A1 (Sanofi, published 2019):
*1 amine or outer side, *2 acyl side, *3 side chain or, on linkers, in order; H or OH if unused. Primed or numbered codes have the meaning given here. Side-chain parts run from the residue outwards. [ ]: non-standard residue; d: D form. The star is where a group is joined. TTDS = 4-[3-[2-[2-(3-aminopropoxy)ethoxy]ethoxy]propylamino]-4-oxo-butanoyl, O=C(CCC(=O)[*:2])NCCCOCCOCCOCCCN[*:1]; TTDS″ = 4-[3-[2-[2-(3-aminopropoxy)ethoxy]ethoxy]propylamino]-4-oxo-butanoyl; PEG12 = NCCOCCOCCOCCOCCOCCOCCOCCOCCOCCOCCOCCOCCC(=O)O; TtdDga = O=C(COCC(=O)[*:2])NCCCOCCOCCOCCCN[*:1]; γGlu = O=C(O)[C@H](CCC(=O)[*:2])N[*:1]; Pentadecanoyl = CCCCCCCCCCCCCCC(=O)*; Stearoyl = CCCCCCCCCCCCCCCCCC(=O)*; Palmitoyl = CCCCCCCCCCCCCCCC(=O)*; Myristoyl = CCCCCCCCCCCCCC(=O)*; αMeK = C[C@](N)(CCCCN)C(=O)O; Nle = CCCC[C@H](N)C(=O)O; PEG2′ = PEG2 spacer unit; Aib = CC(C)(N)C(=O)O

T1: RXFP1 receptor (UniProt Q9HBX9 1-757, limits assumed)
T1 sequence (looked up): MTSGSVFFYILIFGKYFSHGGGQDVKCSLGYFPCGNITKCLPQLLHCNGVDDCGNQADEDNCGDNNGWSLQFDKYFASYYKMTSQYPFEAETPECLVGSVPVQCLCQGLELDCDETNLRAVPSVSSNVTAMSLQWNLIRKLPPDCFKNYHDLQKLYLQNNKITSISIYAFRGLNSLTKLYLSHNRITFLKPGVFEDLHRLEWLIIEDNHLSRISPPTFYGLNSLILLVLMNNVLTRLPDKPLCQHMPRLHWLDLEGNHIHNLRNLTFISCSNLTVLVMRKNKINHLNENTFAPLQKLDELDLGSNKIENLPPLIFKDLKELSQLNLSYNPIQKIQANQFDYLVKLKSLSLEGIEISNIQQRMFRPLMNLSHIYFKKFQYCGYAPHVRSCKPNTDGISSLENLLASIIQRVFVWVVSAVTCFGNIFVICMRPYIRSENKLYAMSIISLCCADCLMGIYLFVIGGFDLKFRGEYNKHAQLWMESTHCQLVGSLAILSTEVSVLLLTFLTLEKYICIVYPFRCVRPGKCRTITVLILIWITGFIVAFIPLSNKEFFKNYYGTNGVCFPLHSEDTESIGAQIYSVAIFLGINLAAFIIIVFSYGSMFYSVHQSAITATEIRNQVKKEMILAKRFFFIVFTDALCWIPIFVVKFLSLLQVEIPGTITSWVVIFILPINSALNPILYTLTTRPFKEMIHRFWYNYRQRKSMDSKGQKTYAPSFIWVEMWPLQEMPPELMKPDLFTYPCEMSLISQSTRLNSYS

B1: peptide of SEQ ID NO: 191 (peptide)
peptide: Ac-LEGREKVRAK(Ac)I[Aib][Aib]EGQSTFS[αMeK]RAK(Ac)K([PEG2′-PEG2′-PEG2′-PEG2′-γGlu-γGlu-γGlu-γGlu-Palmitoyl])-NH2
B2: peptide of SEQ ID NO: 189 (peptide)
peptide: Ac-LEGREKVRAK(Ac)I[Aib][Aib]EGQSTFS[αMeK]RAK(Ac)K([TTDS″-TTDS″-TTDS″-γGlu-γGlu-γGlu-Pentadecanoyl])-NH2
B3: peptide of SEQ ID NO: 188 (peptide)
peptide: Ac-LEGREKVRAK(Ac)I[Aib][Aib]EG[Nle]STFS[αMeK]RAK(Ac)[TTDS][TTDS][TTDS]K([γGlu-γGlu-γGlu-Pentadecanoyl])-NH2
SMILES: CCCCCCCCCCCCCCC(=O)N[C@@H](CCC(=O)N[C@@H](CCC(=O)N[C@@H](CCC(=O)NCCCC[C@H](NC(=O)CCC(=O)NCCCOCCOCCOCCCNC(=O)CCC(=O)NCCCOCCOCCOCCCNC(=O)CCC(=O)NCCCOCCOCCOCCCNC(=O)[C@H](CCCCNC(C)=O)NC(=O)[C@H](C)NC(=O)[C@H](CCCNC(=N)N)NC(=O)[C@](C)(CCCCN)NC(=O)[C@H](CO)NC(=O)[C@H](Cc1ccccc1)NC(=O)[C@@H](NC(=O)[C@H](CO)NC(=O)[C@H](CCCC)NC(=O)CNC(=O)[C@H](CCC(=O)O)NC(=O)C(C)(C)NC(=O)C(C)(C)NC(=O)[C@@H](NC(=O)[C@H](CCCCNC(C)=O)NC(=O)[C@H](C)NC(=O)[C@H](CCCNC(=N)N)NC(=O)[C@@H](NC(=O)[C@H](CCCCN)NC(=O)[C@H](CCC(=O)O)NC(=O)[C@H](CCCNC(=N)N)NC(=O)CNC(=O)[C@H](CCC(=O)O)NC(=O)[C@H](CC(C)C)NC(C)=O)C(C)C)[C@@H](C)CC)[C@@H](C)O)C(N)=O)C(=O)O)C(=O)O)C(=O)O
B4: peptide of SEQ ID NO: 22 (peptide)
peptide: Ac-LEGREKVRAQI[Aib][Aib]EG[Nle]STWS[Aib]RKK[PEG12]K([γGlu-Stearoyl])-NH2
SMILES: CCCCCCCCCCCCCCCCCC(=O)N[C@@H](CCC(=O)NCCCC[C@H](NC(=O)CCOCCOCCOCCOCCOCCOCCOCCOCCOCCOCCOCCOCCNC(=O)[C@H](CCCCN)NC(=O)[C@H](CCCCN)NC(=O)[C@H](CCCNC(=N)N)NC(=O)C(C)(C)NC(=O)[C@H](CO)NC(=O)[C@H](Cc1c[nH]c2ccccc12)NC(=O)[C@@H](NC(=O)[C@H](CO)NC(=O)[C@H](CCCC)NC(=O)CNC(=O)[C@H](CCC(=O)O)NC(=O)C(C)(C)NC(=O)C(C)(C)NC(=O)[C@@H](NC(=O)[C@H](CCC(N)=O)NC(=O)[C@H](C)NC(=O)[C@H](CCCNC(=N)N)NC(=O)[C@@H](NC(=O)[C@H](CCCCN)NC(=O)[C@H](CCC(=O)O)NC(=O)[C@H](CCCNC(=N)N)NC(=O)CNC(=O)[C@H](CCC(=O)O)NC(=O)[C@H](CC(C)C)NC(C)=O)C(C)C)[C@@H](C)CC)[C@@H](C)O)C(N)=O)C(=O)O
B5: peptide of SEQ ID NO: 21 (peptide)
peptide: Ac-LEGREKVRAQI[Aib][Aib]EG[Nle]STWS[Aib]RKK(Ac)[PEG12]K(Stearoyl)-NH2
SMILES: CCCCCCCCCCCCCCCCCC(=O)NCCCC[C@H](NC(=O)CCOCCOCCOCCOCCOCCOCCOCCOCCOCCOCCOCCOCCNC(=O)[C@H](CCCCNC(C)=O)NC(=O)[C@H](CCCCN)NC(=O)[C@H](CCCNC(=N)N)NC(=O)C(C)(C)NC(=O)[C@H](CO)NC(=O)[C@H](Cc1c[nH]c2ccccc12)NC(=O)[C@@H](NC(=O)[C@H](CO)NC(=O)[C@H](CCCC)NC(=O)CNC(=O)[C@H](CCC(=O)O)NC(=O)C(C)(C)NC(=O)C(C)(C)NC(=O)[C@@H](NC(=O)[C@H](CCC(N)=O)NC(=O)[C@H](C)NC(=O)[C@H](CCCNC(=N)N)NC(=O)[C@@H](NC(=O)[C@H](CCCCN)NC(=O)[C@H](CCC(=O)O)NC(=O)[C@H](CCCNC(=N)N)NC(=O)CNC(=O)[C@H](CCC(=O)O)NC(=O)[C@H](CC(C)C)NC(C)=O)C(C)C)[C@@H](C)CC)[C@@H](C)O)C(N)=O
B6: peptide of SEQ ID NO: 192 (peptide)
peptide: Ac-LEGREKVRAK(Ac)I[Aib][Aib]EG[Nle]STFS[αMeK]RAK(Ac)[PEG2′][PEG2′][PEG2′][PEG2′]K([γGlu-γGlu-γGlu-Palmitoyl])-NH2
B7: peptide of SEQ ID NO: 20 (peptide)
peptide: Ac-LEGREKVRAK(Ac)I[Aib][Aib]EG[Nle]STWS[Aib]RKK(Ac)[TtdDga][TtdDga][TtdDga]K([γGlu-γGlu-γGlu-Stearoyl])-NH2
SMILES: CCCCCCCCCCCCCCCCCC(=O)N[C@@H](CCC(=O)N[C@@H](CCC(=O)N[C@@H](CCC(=O)NCCCC[C@H](NC(=O)COCC(=O)NCCCOCCOCCOCCCNC(=O)COCC(=O)NCCCOCCOCCOCCCNC(=O)COCC(=O)NCCCOCCOCCOCCCNC(=O)[C@H](CCCCNC(C)=O)NC(=O)[C@H](CCCCN)NC(=O)[C@H](CCCNC(=N)N)NC(=O)C(C)(C)NC(=O)[C@H](CO)NC(=O)[C@H](Cc1c[nH]c2ccccc12)NC(=O)[C@@H](NC(=O)[C@H](CO)NC(=O)[C@H](CCCC)NC(=O)CNC(=O)[C@H](CCC(=O)O)NC(=O)C(C)(C)NC(=O)C(C)(C)NC(=O)[C@@H](NC(=O)[C@H](CCCCNC(C)=O)NC(=O)[C@H](C)NC(=O)[C@H](CCCNC(=N)N)NC(=O)[C@@H](NC(=O)[C@H](CCCCN)NC(=O)[C@H](CCC(=O)O)NC(=O)[C@H](CCCNC(=N)N)NC(=O)CNC(=O)[C@H](CCC(=O)O)NC(=O)[C@H](CC(C)C)NC(C)=O)C(C)C)[C@@H](C)CC)[C@@H](C)O)C(N)=O)C(=O)O)C(=O)O)C(=O)O
B8: peptide of SEQ ID NO: 190 (peptide)
peptide: Ac-LEGREKVRAK(Ac)I[Aib][Aib]EGQSTFS[αMeK]RAK(Ac)[PEG2′][PEG2′][PEG2′][PEG2′]K([γGlu-γGlu-γGlu-γGlu-Myristoyl])-NH2

Target: T1, RXFP1 receptor
Test: cell-based or functional assay

Row | Binder | EC50 (nM), OVCAR 5 cells (cAMP) | EMax, OVCAR 5 cells (cAMP)
1 | B1 | 0.17 nM | 93%
2 | B2 | 0.42 nM | 100%
3 | B3 | 0.75 nM | 100%
4 | B4 | 21.4 nM | 104%
5 | B5 | 38.6 nM | 88%
6 | B6 | 0.62 nM | 91%
7 | B7 | 0.45 nM | 88%
8 | B8 | 1.29 nM | 93%
